{"source": "paper doi:10.1101/647354", "target": "complement C5 (human) (UniProt P01031)", "sequence (P01031 19-673, chain 1 of 2)": "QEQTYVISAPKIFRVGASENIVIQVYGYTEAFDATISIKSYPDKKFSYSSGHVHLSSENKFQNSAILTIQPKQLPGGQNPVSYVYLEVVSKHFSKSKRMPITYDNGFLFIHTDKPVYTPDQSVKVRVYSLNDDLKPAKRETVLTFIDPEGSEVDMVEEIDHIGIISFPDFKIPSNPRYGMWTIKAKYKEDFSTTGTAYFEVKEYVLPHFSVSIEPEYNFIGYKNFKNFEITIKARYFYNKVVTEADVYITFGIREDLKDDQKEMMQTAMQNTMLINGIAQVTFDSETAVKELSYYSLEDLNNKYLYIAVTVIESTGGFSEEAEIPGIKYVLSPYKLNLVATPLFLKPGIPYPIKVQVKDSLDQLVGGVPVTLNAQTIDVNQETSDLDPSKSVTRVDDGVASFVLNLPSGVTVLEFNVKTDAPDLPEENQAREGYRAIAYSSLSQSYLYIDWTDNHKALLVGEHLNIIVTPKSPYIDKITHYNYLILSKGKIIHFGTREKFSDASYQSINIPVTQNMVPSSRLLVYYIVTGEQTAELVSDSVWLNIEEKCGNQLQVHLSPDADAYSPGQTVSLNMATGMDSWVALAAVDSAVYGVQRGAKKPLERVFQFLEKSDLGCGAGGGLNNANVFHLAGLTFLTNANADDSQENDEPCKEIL", "sequence (P01031 678-1676, chain 2 of 2)": "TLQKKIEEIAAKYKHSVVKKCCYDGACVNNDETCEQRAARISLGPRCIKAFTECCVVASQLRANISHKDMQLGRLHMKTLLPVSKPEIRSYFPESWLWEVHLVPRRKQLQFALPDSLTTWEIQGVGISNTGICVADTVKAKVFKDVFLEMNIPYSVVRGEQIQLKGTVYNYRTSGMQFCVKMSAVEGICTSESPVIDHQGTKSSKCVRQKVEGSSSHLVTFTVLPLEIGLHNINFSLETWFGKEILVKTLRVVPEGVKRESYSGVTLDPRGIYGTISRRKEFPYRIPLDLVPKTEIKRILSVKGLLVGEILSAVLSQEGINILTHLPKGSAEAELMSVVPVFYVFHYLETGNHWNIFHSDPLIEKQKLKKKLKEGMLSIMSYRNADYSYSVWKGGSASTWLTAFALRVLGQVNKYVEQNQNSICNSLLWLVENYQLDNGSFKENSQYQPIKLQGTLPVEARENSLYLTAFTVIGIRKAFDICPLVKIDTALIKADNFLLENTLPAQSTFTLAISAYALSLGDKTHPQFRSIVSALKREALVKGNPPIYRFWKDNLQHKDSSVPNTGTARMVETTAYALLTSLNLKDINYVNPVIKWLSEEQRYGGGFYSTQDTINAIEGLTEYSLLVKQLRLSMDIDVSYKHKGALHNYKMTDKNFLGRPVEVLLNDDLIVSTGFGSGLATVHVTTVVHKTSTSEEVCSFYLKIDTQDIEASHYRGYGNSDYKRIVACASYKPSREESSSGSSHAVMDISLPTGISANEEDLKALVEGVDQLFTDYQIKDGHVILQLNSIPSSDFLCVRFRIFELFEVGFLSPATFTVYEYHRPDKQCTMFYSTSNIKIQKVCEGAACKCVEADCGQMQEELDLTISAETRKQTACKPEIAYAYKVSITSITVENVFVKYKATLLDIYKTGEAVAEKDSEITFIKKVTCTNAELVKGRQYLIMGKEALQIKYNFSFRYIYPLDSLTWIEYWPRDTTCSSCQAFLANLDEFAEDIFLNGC", "test": "SPR"}
{"substance": "CirpT1 (Complement Inhibitor from Rhipicephalus pulchellus of the Terminal Pathway 1) (natural protein)", "values": [{"measurement": "Kd", "value": 10, "unit": "nM"}]}
